Numbering of substitutions follows the chain as printed.
B1: humanized anti-human Factor IX monoclonal antibody SB 249417 (antibody, V domains shown)
VH: QVQLVQSGSELKKPGASVKVSCKASGYTFTNYGMNWVRQAPGQGLKWMGWINTRNGKSTYVDDFKGRFVFSLDSSVSTAYLQISSLKADDTAVYYCTREGNMDGYFPFTYWGQGTLVTVSS
VL: QIVLTQSPSSLSASVGDRVTITCRASSSVNYMHWYQQKPGKAPKPWIYATSNLASGVPSRFSGSGSGTDYTFTISSLQPEDIATYYCQQWSINPRTFGQGTKVEIKR
notes: also called F9HZHC 1-1 / F9HZLC 2-0
B2: humanized anti-human Factor IX monoclonal antibody SB 257732 (antibody, human IgG1, V domains shown)
VH: B1 VH with V2I, K46E, S74T, D89E, Y95F
VL: B1 VL with F72L, I82F, Q99G, V103L
notes: Human IgG1 and kappa constant regions from the vectors; also called F9HZHC 3-0 / F9HZLC 3-0
B3: humanized anti-human Factor IX monoclonal antibody SB 257731 (antibody, human IgG1, V domains shown)
VH: B1 VH
VL: QIVLTQSPATLSLSPGERATLSCRASSSVNYMHWYQQRPGQAPKPWIYATSNLASGVPARFSGSGSGTDYTLTISSLEPEDFAVYYCQQWSINPRTFGGGTKVEIK
notes: Human IgG1 and kappa constant regions from the vectors; also called F9HZHC 1-1 / F9HZLC 1-3
B4: humanized anti-human Factor IX monoclonal antibody SB 249415 (antibody, human IgG1, V domains shown)
VH: B1 VH
VL: EIVLTQSPATLSLSPGERATLSCRASSSVNYMHWYQQRPGQAPKPWIYATSNLASGVPARFSGSGSGTDFTLTISSLEPEDFAVYYCQQWSINPRTFGGGTKVEIKR
notes: Human IgG1 and kappa constant regions from the vectors; also called F9HZHC 1-1 / F9HZLC 1-1
B5: humanized anti-human Factor IX monoclonal antibody SB 249416 (antibody, human IgG1, V domains shown)
VH: B1 VH
VL: B4 VL with F70Y
notes: Human IgG1 and kappa constant regions from the vectors; also called F9HZHC 1-1 / F9HZLC 1-2
B6: humanized anti-human Factor IX monoclonal antibody SB 249413 (antibody, human IgG1, V domains shown)
VH: B1 VH with K46E, S74T, T97A
VL: B4 VL with K44R, P45L, W46L, V57I
notes: also called F9HZHC 1-0 / F9HZLC 1-0
B7: murine anti-Factor IX monoclonal antibody BC2 (antibody, mouse IgG2a, V domains shown)
VH: QIQLVQSGPELKKPGETVKISCKASGYTFTNYGMNWVKQAPGKGLKWMGWINTRNGKSTYVDDFKGRFAFSLESSASTANLQIDNLKDEDTATYFCTREGNMDGYFPFTYWGQGTLVTVSA
VL: QIVLSQSPAILSASPGEKVTMTCRASSSVNYMHWYQQKPGSSPKPWIYATSNLASGVPARFSGSGSGTSYSLTISRVEAEDAATYYCQQWSINPRTFGGGTKLEIKR
notes: also called BC2 mAb; BC2 Antibody
B8: mouse-human chimeric anti-Factor IX monoclonal antibody chαFIX (antibody, V domains shown)
VH: B7 VH
VL: QIVLSQSPAILSASPGEKVTMTCRASSSVNYMHWYQQKPGSSPKPWIYATSNLASGVPARFSGSGSGTSYSLTISRVEAEDAATYYCQQWSINPRTFGGGTKLEIK
notes: BC2 variable regions with human constant regions; also called Chf9; F9CHHC / F9CHLC

Tests used:
[1] = target: T1, Recombinant human Factor IX (rhFIX, Genetics Institute) (human, UniProt P00740 47-461); assay: titration calorimetry, 37 C, 10 mM CaCl2
T1 sequence (P00740 47-461 limits assumed): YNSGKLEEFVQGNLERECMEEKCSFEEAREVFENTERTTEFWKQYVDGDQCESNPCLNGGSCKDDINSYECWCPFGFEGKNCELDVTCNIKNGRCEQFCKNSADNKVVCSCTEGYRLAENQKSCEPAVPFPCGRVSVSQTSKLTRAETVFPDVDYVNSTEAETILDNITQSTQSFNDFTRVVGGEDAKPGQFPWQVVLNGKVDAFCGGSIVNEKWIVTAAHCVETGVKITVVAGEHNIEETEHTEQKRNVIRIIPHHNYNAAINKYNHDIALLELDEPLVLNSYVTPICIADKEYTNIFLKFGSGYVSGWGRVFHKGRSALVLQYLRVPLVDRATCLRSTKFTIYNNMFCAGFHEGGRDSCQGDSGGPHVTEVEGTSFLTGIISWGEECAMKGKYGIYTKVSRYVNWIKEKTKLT
Method: (§1) The interactions between rhFIX and SB 249417 , BC2 and other humanized constructs were characterized by titration microcalorimetry, which measures binding interactions in solution from the intrinsic heat of binding. Nine injections of 106 uM FIX were made into the calorimeter containing 2 uM mAb SB 249417. Binding was detected in the first 4 injections as exothermic heats. At the last 5 injections the mAb binding sites were saturated with FIX and only background heats of mixing were observed. […] Nonlinear least squares analysis of the data yield the binding affinity.

[2] = target: T1, Recombinant human Factor IX (rhFIX, …); assay: SPR (BIAcore), calculated from kinetics
Method: (§2) The kinetics of Factor IX binding to SB 249417 was assessed by BIAcore analysis with antibody bound to an immobilized protein A surface. Recombinant human Factor IX (rhFIX, Genetics Institute) at 49 nM was used and measurements performed in the presence of 5 mM Ca²⁺.

[3] = target: T1, Recombinant human Factor IX (rhFIX, …); assay: biosensor (BIAcore)
Method: as §2

[4] = target: T1, Recombinant human Factor IX (rhFIX, …); assay: isothermal titration calorimetry, 25 C
Method: as §1

[5] = target: T1, Recombinant human Factor IX (rhFIX, …); assay: titration calorimetry, calculated for 25 C by the van't Hoff equation, 10 mM CaCl2
Method: as §1

[6] = target: T1, Recombinant human Factor IX (rhFIX, …); assay: SPR (BIAcore), antibody bound to immobilized protein A, rhFIX in solution, 5 mM Ca2+
Method: as §2

[7] = target: T1, Recombinant human Factor IX (rhFIX, …); assay: titration calorimetry
Method: as §1

[8] = target: T1, Recombinant human Factor IX (rhFIX, …); assay: titration microcalorimetry, 106 uM FIX injected into 2 uM mAb
Method: as §1

[9] = target: T1, Recombinant human Factor IX (rhFIX, …); assay: isothermal titration calorimetry
Method: as §1

[10] = target: T1, Recombinant human Factor IX (rhFIX, …); assay: SPR (BIAcore), antibody bound to immobilized protein A, Factor IX in solution
Method: as §2

[11] = target: IX K5A (Factor IX having a lysine to alanine substitution at residue 5) (UniProt P00740 47-461, K5A); assay: SPR (BiaCore 2000), BC2 coupled to the chip, 200 nM construct, 5 mM CaCl2
Sequence of IX K5A (Factor IX having a lysine to alanine substitution at residue 5) (P00740 47-461 K51A): as the sequence (P00740 47-461 limits assumed) above, with K5A counted along it
Method: (§3) A library of chimeric constructs composed of sequences of Factor IX spliced into the framework of the homologous protein Factor VII was constructed and used to map the epitope for the Factor IX BC2 mAb. See Cheung et al., Thromb. Res. 80, 419-427 (1995). Binding was measured using a BiaCore 2000 surface plasmon resonance device. The BC2 antibody was coupled directly to the chip using the NHS/EDC reaction. Binding was measured by 2 min of contact time at 20 uL/min with 200 nM of each of the given constructs in 25 mM MOPS, pH 7.4, 0.15 M NaCl, 5 mM CaCl2. Dissociation was monitored for 3 min using the same buffer with no protein. No binding was detected to the wild type construct in the presence of 50 mM EDTA.

[12] = target: T2, VII-A/IX (UniProt P08709 61-105; P00740 93-461, limits assumed); assay: SPR (BiaCore 2000), BC2 coupled to the chip, construct injected, 5 mM CaCl2
T2 construct: The make-up is read from the label by analogy with IX-A/VII
Method: as §3

[13] = target: T3, Plasma VII (UniProt P08709 61-466); assay: as above
T3 construct: also called Factor VII
T3 sequence (looked up): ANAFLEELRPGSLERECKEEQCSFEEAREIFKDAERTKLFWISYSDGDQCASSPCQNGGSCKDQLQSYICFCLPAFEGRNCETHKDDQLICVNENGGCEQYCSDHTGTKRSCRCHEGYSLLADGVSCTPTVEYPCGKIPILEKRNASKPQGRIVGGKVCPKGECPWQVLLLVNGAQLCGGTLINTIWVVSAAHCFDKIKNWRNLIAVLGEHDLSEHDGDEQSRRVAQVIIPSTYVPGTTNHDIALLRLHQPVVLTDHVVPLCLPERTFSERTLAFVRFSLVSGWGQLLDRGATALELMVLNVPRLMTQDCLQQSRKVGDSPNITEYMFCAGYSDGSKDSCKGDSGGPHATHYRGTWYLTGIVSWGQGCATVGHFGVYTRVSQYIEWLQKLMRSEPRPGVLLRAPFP
Method: as §3

[14] = target: human Factor IX (human, UniProt P00740 47-461); assay: cell-based or functional assay
Sequence of human Factor IX (P00740 47-461 limits assumed): as the sequence (P00740 47-461 limits assumed) above

Binder | Kd [1] [nM] | Kd [2] [nM] | Kd [5] [nM] | Molar Binding Ratio FIX/mAb [7] [FIX/mAb] | koff [10] [s⁻¹] | kon [10] [M⁻¹ s⁻¹] | also measured
B1 | 12 | 1.9 | 4 | 1.5 |  |  | Kd [3]: 2 nM; koff [3]: 0.0004 s⁻¹; kon [3]: 200000 M⁻¹ s⁻¹; Kd [4]: 4 nM; koff [6]: 0.00041 s⁻¹; kon [6]: 200000 M⁻¹ s⁻¹; molar binding ratio at the equivalence point [8]: ~2 FIX per mAb; Stoichiometry of Factor IX Binding [9]: 1.5 moles Factor IX : 1 mole mAb
B2 | 9 | 1.5 | 4 | 1.8 | 0.0012 | 1.1e+06 | 
B3 |  | 1.1 |  |  | 0.00099 | 920000 | 
B4 | 7 | 1.1 to 2.3 | 3 | 1.7 | 0.00018 | 750000 | 
B5 |  | 0.8 |  |  | 0.00041 | 520000 | 
B6 | 12 | 3.7 to 5.1 | 6 | 1.9 | 0.0028 | 650000 | 
B7 | 20 | 1.9 | 10 | 1.4 | 0.00091 | 480000 | binding result [11]: binds; binding result [12]: no binding (tested: 200 nM); binding result [13]: no binding (tested: 200 nM); IC50, nM (aPTT clotting time of human plasma) [14]: ~50 nM
B8 |  | 1.3 |  |  | 0.0003 | 240000 | 

Source: patent US20070224198A1 (GlaxoSmithKline, published 2007)
